In article PMC11667226 (Theranostics, 2025):
Read-outs that look alike come from different tables or passages of the source. Non-standard residues stand in square brackets, D forms with d. Residues, ends and D or L forms follow the SMILES beside them. *: point of attachment. X1 = CC1(C)C(=CC=CC=CC=CC2=[N+](CCCCCC(=O)*)c3ccc4ccccc4c3C2(C)C)N(CCCCS(=O)(=O)[O-])c2ccc3ccccc3c21; Cha = N[C@@H](CC1CCCCC1)C(=O)O

Settings: for TEAE Mild (Grade 1): No. events / TEAE Mild (Grade 1): No. patients (%) / TEAE Moderate (Grade 2): No. events / TEAE Moderate (Grade 2): No. patients (%) / TEAE Severe (Grade 3): No. events / TEAE Severe (Grade 3): No. patients (%): CTCAE v5.0
Procedure: ECGs were taken at baseline, 1 hr ± 15 min, and 44 hrs ± 6 h post-injection. Blood samples (including lever and kidney parameters) were sampled at baseline, 12 hrs ± 4 hrs, and 44 hrs ± 6 hrs post-injection. All laboratory analyses were performed by the Department of Biochemistry at Rigshospitalet. AE assessments were graded according to the National Cancer Institute “Common Terminology Criteria for Adverse Events (CTCAE)” version 5.0. There was no data monitoring committee in this trial.

SMILES: CC(C)C[C@H](NC(=O)[C@H](Cc1ccc(O)cc1)NC(=O)[C@@H](CCCNC(=N)N)NC(=O)[C@@H](CO)NC(=O)[C@H](Cc1ccccc1)NC(=O)[C@H](CC1CCCCC1)NC(=O)[C@H](CC(=O)O)NC(=O)[C@H](CCC(=O)O)NC(=O)[C@H](CCC(=O)O)NC(=O)CCCCC[N+]1=C(C=CC=CC=CC=C2N(CCCCS(=O)(=O)[O-])c3ccc4ccccc4c3C2(C)C)C(C)(C)c2c1ccc1ccccc21)C(=O)N[C@@H](Cc1c[nH]c2ccccc12)C(=O)N[C@@H](CO)C(=O)O [FG001, ICG-Glu-Glu-AE105] (X1-EED[Cha]F[dS][dR]YLWS-OH; N-terminus and C-terminus assumed)
- ECG abnormalities (ECGs at baseline, 1 hr and 44 hrs post-injection): No ECG abnormalities
- TEAE ALT increased: No. events (FG001 4 mg i.v., N=5): 0
- TEAE ALT increased: No. subjects (%) (FG001 4 mg i.v., N=5): 0 (0.0%)
- TEAE AST increased: No. events (FG001 4 mg i.v., N=5): 1
- TEAE AST increased: No. subjects (%) (FG001 4 mg i.v., N=5): 1 (20.0%)
- TEAE Blood ALP increased: No. events (FG001 4 mg i.v., N=5): 0
- TEAE Blood ALP increased: No. subjects (%) (FG001 4 mg i.v., N=5): 0 (0.0%)
- TEAE Blood bilirubin increased: No. events (FG001 4 mg i.v., N=5): 1
- TEAE Blood bilirubin increased: No. subjects (%) (FG001 4 mg i.v., N=5): 1 (20.0%)
- TEAE Blood creatinine increased: No. events (FG001 4 mg i.v., N=5): 0
- TEAE Blood creatinine increased: No. subjects (%) (FG001 4 mg i.v., N=5): 0 (0.0%)
- TEAE Dysgeusia: No. events (FG001 4 mg i.v., N=5): 0
- TEAE Dysgeusia: No. subjects (%) (FG001 4 mg i.v., N=5): 0 (0.0%)
- TEAE GGT increased: No. events (FG001 4 mg i.v., N=5): 0
- TEAE GGT increased: No. subjects (%) (FG001 4 mg i.v., N=5): 0 (0.0%)
- TEAE Hypalbuminaemia: No. events (FG001 4 mg i.v., N=5): 4
- TEAE Hypalbuminaemia: No. subjects (%) (FG001 4 mg i.v., N=5): 4 (80.0%)
- TEAE Hyperglycaemia: No. events (FG001 4 mg i.v., N=5): 0
- TEAE Hyperglycaemia: No. subjects (%) (FG001 4 mg i.v., N=5): 0 (0.0%)
- TEAE Hypertension: No. events (FG001 4 mg i.v., N=5): 0
- TEAE Hypertension: No. subjects (%) (FG001 4 mg i.v., N=5): 0 (0.0%)
- TEAE Hyponatraemia: No. events (FG001 4 mg i.v., N=5): 1
- TEAE Hyponatraemia: No. subjects (%) (FG001 4 mg i.v., N=5): 1 (20.0%)
- TEAE Hypotension: No. events (FG001 4 mg i.v., N=5): 0
- TEAE Hypotension: No. subjects (%) (FG001 4 mg i.v., N=5): 0 (0.0%)
- TEAE Hypothermia: No. events (FG001 4 mg i.v., N=5): 0
- TEAE Hypothermia: No. subjects (%) (FG001 4 mg i.v., N=5): 0 (0.0%)
- TEAE Pneumonia: No. events (FG001 4 mg i.v., N=5): 0
- TEAE Pneumonia: No. subjects (%) (FG001 4 mg i.v., N=5): 0 (0.0%)
- TEAE SOC General disorders and administration site conditions: No. events (FG001 4 mg i.v., N=5): 0
- TEAE SOC General disorders and administration site conditions: No. subjects (%) (FG001 4 mg i.v., N=5): 0 (0.0%)
- TEAE SOC Infections and infestations: No. events (FG001 4 mg i.v., N=5): 0
- TEAE SOC Infections and infestations: No. subjects (%) (FG001 4 mg i.v., N=5): 0 (0.0%)
- TEAE SOC Investigations: No. events (FG001 4 mg i.v., N=5): 2
- TEAE SOC Investigations: No. subjects (%) (FG001 4 mg i.v., N=5): 2 (40.0%)
- TEAE SOC Metabolism and nutrition disorders: No. events (FG001 4 mg i.v., N=5): 5
- TEAE SOC Metabolism and nutrition disorders: No. subjects (%) (FG001 4 mg i.v., N=5): 4 (80.0%)
- TEAE SOC Nervous system disorders: No. events (FG001 4 mg i.v., N=5): 0
- TEAE SOC Nervous system disorders: No. subjects (%) (FG001 4 mg i.v., N=5): 0 (0.0%)
- TEAE SOC Vascular disorders: No. events (FG001 4 mg i.v., N=5): 0
- TEAE SOC Vascular disorders: No. subjects (%) (FG001 4 mg i.v., N=5): 0 (0.0%)
- FG001 related TEAEs: No. events (FG001 4 mg i.v., n = 5): 0
- FG001 related TEAEs: No. patients (%) (FG001 4 mg i.v., n = 5): 0 (0%)
- SAEs: No. events (FG001 4 mg i.v., n = 5): 0
- SAEs: No. patients (%) (FG001 4 mg i.v., n = 5): 0 (0%)
- TEAE: No. events (FG001 4 mg i.v., n = 5): 7
- TEAE: No. patients (%) (FG001 4 mg i.v., n = 5): 4 (80%)
- TEAE Mild (Grade 1): No. events (FG001 4 mg i.v., n = 5): 5
- TEAE Mild (Grade 1): No. patients (%) (FG001 4 mg i.v., n = 5): 2 (40.0%)
- TEAE Moderate (Grade 2): No. events (FG001 4 mg i.v., n = 5): 2
- TEAE Moderate (Grade 2): No. patients (%) (FG001 4 mg i.v., n = 5): 2 (40.0%)
- TEAE Severe (Grade 3): No. events (FG001 4 mg i.v., n = 5): 0
- TEAE Severe (Grade 3): No. patients (%) (FG001 4 mg i.v., n = 5): 0 (0.0%)
- TEAE ALT increased: No. events (FG001 16 mg i.v., N=8): 0
- TEAE ALT increased: No. subjects (%) (FG001 16 mg i.v., N=8): 0 (0.0%)
- TEAE AST increased: No. events (FG001 16 mg i.v., N=8): 1
- TEAE AST increased: No. subjects (%) (FG001 16 mg i.v., N=8): 1 (12.5%)
- TEAE Blood ALP increased: No. events (FG001 16 mg i.v., N=8): 0
- TEAE Blood ALP increased: No. subjects (%) (FG001 16 mg i.v., N=8): 0 (0.0%)
- TEAE Blood bilirubin increased: No. events (FG001 16 mg i.v., N=8): 2
- TEAE Blood bilirubin increased: No. subjects (%) (FG001 16 mg i.v., N=8): 2 (25.0%)
- TEAE Blood creatinine increased: No. events (FG001 16 mg i.v., N=8): 1
- TEAE Blood creatinine increased: No. subjects (%) (FG001 16 mg i.v., N=8): 1 (12.5%)
- TEAE Dysgeusia: No. events (FG001 16 mg i.v., N=8): 1
- TEAE Dysgeusia: No. subjects (%) (FG001 16 mg i.v., N=8): 1 (12.5%)
- TEAE GGT increased: No. events (FG001 16 mg i.v., N=8): 0
- TEAE GGT increased: No. subjects (%) (FG001 16 mg i.v., N=8): 0 (0.0%)
- TEAE Hypalbuminaemia: No. events (FG001 16 mg i.v., N=8): 5
- TEAE Hypalbuminaemia: No. subjects (%) (FG001 16 mg i.v., N=8): 5 (62.5%)
- TEAE Hyperglycaemia: No. events (FG001 16 mg i.v., N=8): 1
- TEAE Hyperglycaemia: No. subjects (%) (FG001 16 mg i.v., N=8): 1 (12.5%)
- TEAE Hypertension: No. events (FG001 16 mg i.v., N=8): 1
- TEAE Hypertension: No. subjects (%) (FG001 16 mg i.v., N=8): 1 (12.5%)
- TEAE Hyponatraemia: No. events (FG001 16 mg i.v., N=8): 0
- TEAE Hyponatraemia: No. subjects (%) (FG001 16 mg i.v., N=8): 0 (0.0%)
- TEAE Hypotension: No. events (FG001 16 mg i.v., N=8): 1
- TEAE Hypotension: No. subjects (%) (FG001 16 mg i.v., N=8): 1 (12.5%)
- TEAE Hypothermia: No. events (FG001 16 mg i.v., N=8): 1
- TEAE Hypothermia: No. subjects (%) (FG001 16 mg i.v., N=8): 1 (12.5%)
- TEAE Pneumonia: No. events (FG001 16 mg i.v., N=8): 1
- TEAE Pneumonia: No. subjects (%) (FG001 16 mg i.v., N=8): 1 (12.5%)
- TEAE SOC General disorders and administration site conditions: No. events (FG001 16 mg i.v., N=8): 1
- TEAE SOC General disorders and administration site conditions: No. subjects (%) (FG001 16 mg i.v., N=8): 1 (12.5%)
- TEAE SOC Infections and infestations: No. events (FG001 16 mg i.v., N=8): 1
- TEAE SOC Investigations: No. events (FG001 16 mg i.v., N=8): 4
- TEAE SOC Investigations: No. subjects (%) (FG001 16 mg i.v., N=8): 3 (37.5%)
- TEAE SOC Metabolism and nutrition disorders: No. events (FG001 16 mg i.v., N=8): 6
- TEAE SOC Metabolism and nutrition disorders: No. subjects (%) (FG001 16 mg i.v., N=8): 5 (62.5%)
- TEAE SOC Nervous system disorders: No. events (FG001 16 mg i.v., N=8): 1
- TEAE SOC Vascular disorders: No. events (FG001 16 mg i.v., N=8): 2
- TEAE SOC Vascular disorders: No. subjects (%) (FG001 16 mg i.v., N=8): 2 (25.0%)
- FG001 related TEAEs: No. events (FG001 16 mg i.v., n = 8): 0
- FG001 related TEAEs: No. patients (%) (FG001 16 mg i.v., n = 8): 0 (0%)
- SAEs: No. events (FG001 16 mg i.v., n = 8): 0
- SAEs: No. patients (%) (FG001 16 mg i.v., n = 8): 0 (0%)
- TEAE: No. events (FG001 16 mg i.v., n = 8): 15
- TEAE: No. patients (%) (FG001 16 mg i.v., n = 8): 8 (100%)
- TEAE Mild (Grade 1): No. events (FG001 16 mg i.v., n = 8): 11
- TEAE Mild (Grade 1): No. patients (%) (FG001 16 mg i.v., n = 8): 4 (50.0%)
- TEAE Moderate (Grade 2): No. events (FG001 16 mg i.v., n = 8): 4
- TEAE Moderate (Grade 2): No. patients (%) (FG001 16 mg i.v., n = 8): 4 (50.0%)
- TEAE Severe (Grade 3): No. events (FG001 16 mg i.v., n = 8): 0
- TEAE Severe (Grade 3): No. patients (%) (FG001 16 mg i.v., n = 8): 0 (0.0%)
- TEAE ALT increased: No. events (FG001 36 mg i.v., N=4): 1
- TEAE ALT increased: No. subjects (%) (FG001 36 mg i.v., N=4): 1 (25.0%)
- TEAE AST increased: No. events (FG001 36 mg i.v., N=4): 1
- TEAE AST increased: No. subjects (%) (FG001 36 mg i.v., N=4): 1 (25.0%)
- TEAE Blood ALP increased: No. events (FG001 36 mg i.v., N=4): 1
- TEAE Blood ALP increased: No. subjects (%) (FG001 36 mg i.v., N=4): 1 (25.0%)
